From patent US20250361312A1 (INVOX PHARMA, published 2025)
Numbering of substitutions follows the chain as printed.

T1: human TNFRI (human, UniProt P19438 30-211, limits assumed)
T1 construct: Amine-coupled to a CM5 chip
T1 sequence (looked up): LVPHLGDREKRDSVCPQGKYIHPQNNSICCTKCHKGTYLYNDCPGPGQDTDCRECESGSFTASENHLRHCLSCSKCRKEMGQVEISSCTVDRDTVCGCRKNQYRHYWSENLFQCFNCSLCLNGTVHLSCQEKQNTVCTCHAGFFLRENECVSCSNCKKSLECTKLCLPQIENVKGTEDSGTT

T2: human NGFR (human, UniProt P08138 29-250, limits assumed)
T2 construct: Amine-coupled to a CM5 chip
T2 sequence (looked up): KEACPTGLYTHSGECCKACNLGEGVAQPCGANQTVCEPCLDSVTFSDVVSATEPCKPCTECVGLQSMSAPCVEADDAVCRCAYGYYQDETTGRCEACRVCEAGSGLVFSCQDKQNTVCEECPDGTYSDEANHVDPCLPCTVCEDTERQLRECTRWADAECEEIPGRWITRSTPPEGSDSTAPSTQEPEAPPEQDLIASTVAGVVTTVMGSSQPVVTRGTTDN

T3: human TNFRII (human, UniProt P20333 23-257, limits assumed)
T3 construct: Amine-coupled to a CM5 chip
T3 sequence (looked up): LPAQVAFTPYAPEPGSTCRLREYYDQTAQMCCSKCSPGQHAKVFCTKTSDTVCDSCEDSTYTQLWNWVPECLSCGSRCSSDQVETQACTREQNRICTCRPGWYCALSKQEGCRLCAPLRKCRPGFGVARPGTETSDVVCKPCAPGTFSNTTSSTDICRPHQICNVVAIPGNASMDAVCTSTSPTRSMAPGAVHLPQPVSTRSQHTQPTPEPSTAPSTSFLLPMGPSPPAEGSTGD

B1: FS20-22-49AA/4420 (bispecific antibody, human IgG1, kappa, L234A L235A)
heavy: EVKLDETGGGLVQPGRPMKLSCVASGFTFSDYWMNWVRQSPEKGLEWVAQIRNKPYNYETYYSDSVKGRFTISRDDSKSSVYLQMNNLRVEDMGIYYCTGSYYGMDYWGQGTSVTVSSASTKGPSVFPLAPSSKSTSGGTAALGCLVKDYFPEPVTVSWNSGALTSGVHTFPAVLQSSGLYSLSSVVTVPSSSLGTQTYICNVNHKPSNTKVDKKVEPKSCDKTHTCPPCPAPEAAGGPSVFLFPPKPKDTLMISRTPEVTCVVVDVSHEDPEVKFNWYVDGVEVHNAKTKPREEQYNSTYRVVSVLTVLHQDWLNGKEYKCKVSNKALPAPIEKTISKAKGQPREPQVYTLPPSRDEYWDQEVSLTCLVKGFYPSDIAVEWESNGDEQFAYKTTPPVLDSDGSFFLYSKLTVDQYRWNPADYFSCSVMHEALHNHYTQKSLSLSPG
light: DVVMTQTPLSLPVSLGDQASISCRSSQSLVHSNGNTYLRWYLQKPGQSPKVLIYKVSNRFSGVPDRFSGSGSGTDFTLKISRVEAEDLGVYFCSQSTHVPWTFGGGTKLEIKRTVAAPSVFIFPPSDEQLKSGTASVVCLLNNFYPREAKVQWKVDNALQSGNSQESVTEQDSKDSTYSLSSTLTLSKADYEKHKVYACEVTHQGLSSPVTKSFNRGEC
notes: Human IgG1 with anti-FITC 4420 Fab and LALA; The OX40 site is in the CH3 domain; also called FS20-22-49 Fcab in mock (4420 LALA) mAb^2 format; FS20-22-49/4420 (LALA)
B2: FS20-31-102AA/4420 (bispecific antibody, human IgG1, kappa, L234A L235A)
heavy: EVKLDETGGGLVQPGRPMKLSCVASGFTFSDYWMNWVRQSPEKGLEWVAQIRNKPYNYETYYSDSVKGRFTISRDDSKSSVYLQMNNLRVEDMGIYYCTGSYYGMDYWGQGTSVTVSSASTKGPSVFPLAPSSKSTSGGTAALGCLVKDYFPEPVTVSWNSGALTSGVHTFPAVLQSSGLYSLSSVVTVPSSSLGTQTYICNVNHKPSNTKVDKKVEPKSCDKTHTCPPCPAPEAAGGPSVFLFPPKPKDTLMISRTPEVTCVVVDVSHEDPEVKFNWYVDGVEVHNAKTKPREEQYNSTYRVVSVLTVLHQDWLNGKEYKCKVSNKALPAPIEKTISKAKGQPREPQVYTLPPSRDEWASGEVSLTCLVKGFYPSDIAVEWESNGQPEVDYKTTPPVLDSDGSFFLYSKLTVPYWRWGVPRTFSCSVMHEALHNHYTQKSLSLSPG
light: B1 light
notes: Human IgG1 with anti-FITC 4420 Fab and LALA; The OX40 site is in the CH3 domain; also called FS20-31-102 Fcab in mock (4420 LALA) mAb^2 format
B3: FS20-31-115AA/4420 (bispecific antibody, human IgG1, kappa, L234A L235A)
heavy: B2 heavy with Q387E, P388Q, V390F, V420A, P421K
light: B1 light
notes: Human IgG1 with anti-FITC 4420 Fab and LALA; The OX40 site is in the CH3 domain; also called FS20-31-115 Fcab in mock (4420 LALA) mAb^2 format
B4: FS20-31-94AA/4420 (bispecific antibody, human IgG1, kappa, L234A L235A)
heavy: B2 heavy with A360E, S361H, Q387I, P388R, V390H, V420G, R422G
light: B1 light
notes: Human IgG1 with anti-FITC 4420 Fab and LALA; also called FS20-31-94 Fcab in mock (4420 LALA) mAb^2 format
B5: FS20-22-85AA/4420 (bispecific antibody, human IgG1, kappa, L234A L235A)
heavy: B1 heavy with V413L, A421F, Y423D
light: B1 light
notes: Human IgG1 with anti-FITC 4420 Fab and LALA; The OX40 site is in the CH3 domain; also called FS20-22-85 Fcab in mock (4420 LALA) mAb^2 format
B6: FS20-31-108AA/4420 (bispecific antibody, human IgG1, kappa, L234A L235A)
heavy: B2 heavy with Q387E, P388K, V390I, V420A, P421K
light: B1 light
notes: Human IgG1 with anti-FITC 4420 Fab and LALA; The OX40 site is in the CH3 domain; also called FS20-31-108 Fcab in mock (4420 LALA) mAb^2 format

These binders were tested against T1, human TNFRI (assay: SPR (Biacore T200), receptor on CM5 chip).

Row | binding result | Binder
1 | no binding (tested: 1 µM) | B1
2 | no binding (tested: 1 µM) | B2
3 | no binding (tested: 1 µM) | B3
4 | no binding (tested: 1 µM) | B4
5 | no binding (tested: 1 µM) | B5
6 | no binding (tested: 1 µM) | B6

Each binder was assayed against T4, human CD40 (human, UniProt P25942 21-193, limits assumed) (assay: SPR (Biacore T200), receptor on CM5 chip).
T4 construct: Amine-coupled to a CM5 chip
T4 sequence (P25942 21-193 limits assumed): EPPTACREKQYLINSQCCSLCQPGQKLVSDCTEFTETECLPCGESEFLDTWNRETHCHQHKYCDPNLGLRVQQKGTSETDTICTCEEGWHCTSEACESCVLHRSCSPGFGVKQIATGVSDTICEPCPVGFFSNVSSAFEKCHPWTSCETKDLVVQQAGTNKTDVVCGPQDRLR

Row | binding result | Binder
7 | no binding (tested: 1 µM) | B1
8 | no binding (tested: 1 µM) | B2
9 | no binding (tested: 1 µM) | B3
10 | no binding (tested: 1 µM) | B4
11 | no binding (tested: 1 µM) | B5
12 | no binding (tested: 1 µM) | B6

These binders were tested against T5, human CD137 (human, UniProt Q07011 24-186, limits assumed) (assay: SPR (Biacore T200), receptor on CM5 chip).
T5 construct: Amine-coupled to a CM5 chip; also called 4-1BB

Row | binding result | Binder
13 | no binding (tested: 1 µM) | B1
14 | no binding (tested: 1 µM) | B2
15 | no binding (tested: 1 µM) | B3
16 | no binding (tested: 1 µM) | B4
17 | no binding (tested: 1 µM) | B5
18 | no binding (tested: 1 µM) | B6

The binders below were run against T2, human NGFR (assay: SPR (Biacore T200), receptor on CM5 chip).

Row | binding result | Binder
19 | no binding (tested: 1 µM) | B1
20 | no binding (tested: 1 µM) | B2
21 | no binding (tested: 1 µM) | B3
22 | no binding (tested: 1 µM) | B4
23 | no binding (tested: 1 µM) | B5
24 | no binding (tested: 1 µM) | B6

Each binder was assayed against T3, human TNFRII (assay: SPR (Biacore T200), receptor on CM5 chip).

Row | binding result | Binder
25 | no binding (tested: 1 µM) | B1
26 | no binding (tested: 1 µM) | B2
27 | no binding (tested: 1 µM) | B3
28 | no binding (tested: 1 µM) | B4
29 | no binding (tested: 1 µM) | B5
30 | no binding (tested: 1 µM) | B6
